Assay [1] concerns the target human amylin 1 receptor (CTR + RAMP1) (human) (UniProt O60894).
Assay [2] concerns the target human calcitonin receptor, transcript variant 2 (CT(a) subtype), expressed alone (human).

Chain of human amylin (P10997 34-70): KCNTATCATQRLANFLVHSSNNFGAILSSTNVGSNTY
Chain of UniProt O60894 (O60894 whole entry, looked up): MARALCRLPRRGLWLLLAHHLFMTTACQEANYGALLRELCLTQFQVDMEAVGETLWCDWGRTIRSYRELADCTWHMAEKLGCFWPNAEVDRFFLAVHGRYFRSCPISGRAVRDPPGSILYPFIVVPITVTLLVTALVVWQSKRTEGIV

Turning to “human amylin (from UniProt P10997 34-70) (peptide)”, the pEC50 of the amylin-induced current (two-electrode voltage clamp, -70 mV), oocytes expressing AMY1-R, amylin 0.01 to 10 μM in assay [1] was 6.33 -log M.
In the case of “human α-CGRP (calcitonin gene-related peptide) (from UniProt P06881 83-119)”, in assay [2], the inward current (two-electrode voltage clamp, -70 mV), oocytes expressing CTR, CGRP 0.01 to 10 μM; maximum at 10 μM was -1.07 μA and the pEC50 of the CGRP-induced inward current (two-electrode voltage clamp, holding potential -70 mV), oocytes expressing CTR is 5.42 -log M.
